Experimental data as given in patent publication WO2009024653A1 (dated 2009).

Experiments:
[1] = target: T1, RHD5, human monoclonal IgG1 antibody directed against the C1 domain of factor VIII (LMBP 6165CB); test: SPR (Biacore), RHD5 immobilised on a CM5 chip, 18B6 injected
T1 construct: Human IgG1; also called anticorps RHD5; anti-C1 antibody

[2] = target: T1, RHD5, human monoclonal IgG1 antibody …; test: cell-based or functional assay
[3] = target: T1, RHD5, human monoclonal IgG1 antibody …; test: competition ELISA, coated recFVIII, RHD5 at 2 ug/ml pre-incubated with 18B6

T1 sequence (VH, as listed by the source, chain 1 of 2): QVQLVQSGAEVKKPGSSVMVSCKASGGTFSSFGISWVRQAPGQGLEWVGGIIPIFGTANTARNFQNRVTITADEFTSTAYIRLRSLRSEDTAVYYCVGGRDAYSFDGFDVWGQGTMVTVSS
T1 sequence (VL, as listed by the source, chain 2 of 2): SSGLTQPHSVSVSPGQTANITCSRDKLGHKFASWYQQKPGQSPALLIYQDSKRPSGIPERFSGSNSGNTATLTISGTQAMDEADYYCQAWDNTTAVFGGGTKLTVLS

B1: anti-idiotypic monoclonal antibody 18B6 (produced by hybridoma 18B6, CNCM I-3559) (antibody, mouse IgG1, V domains shown)
VH: QVQLQQSGAELAKPGASVKMSCKASGYTFTTYWMHWIKQRPGQDLEWIGYINPTSGYTEYNQNFKDKATLTADKSSSTAYMQLNSLTSEDSAVYFCARSGAYYRYDDAMDSWGQGTSVTVSS
VL: QIVLSQSPAILSASPGEKVTMTCRASSSVSYMNWYQQKPGSSPKPWIYATSNLASGVPARFSGSGSGTSYSLTISRVEAEDAATYYCQQWSSNPPMLTFGAGTKLELK
notes: also called anticorps anti-idiotypique 18B6; clone 18B6 anti-RHD5
For B1, the koff [1] was 1.45e-05 s⁻¹, the kon [1] was 4260 M⁻¹ s⁻¹ and the “neutralisation of the inhibitory (anti-FVIII) activity of RHD5, chromogenic factor VIII test (DADE), RHD5 0.4 ug/ml, FVIII Kogenate 0.5 U/ml” value [2] was 50 % neutralisation at an equimolar RHD5/18B6 ratio. The “RHD5/18B6 molar ratio at 50% inhibition of RHD5 binding to FVIII” value [3] was 2.5 molar ratio RHD5/18B6 and the “percent inhibition of RHD5 binding to FVIII at an equimolar ratio” value [3] was 92%.
